Experimental data from patent publication US20210002376A1 (UNIVERSIT T STUTTGART, published 2021).

Experiments:
TNFR2 (on Kym-1 cells) = target: T1, TNFR2 (on Kym-1 cells) (UniProt P20333 23-461, limits assumed); assay: cell-based or functional assay
T1 sequence (looked up): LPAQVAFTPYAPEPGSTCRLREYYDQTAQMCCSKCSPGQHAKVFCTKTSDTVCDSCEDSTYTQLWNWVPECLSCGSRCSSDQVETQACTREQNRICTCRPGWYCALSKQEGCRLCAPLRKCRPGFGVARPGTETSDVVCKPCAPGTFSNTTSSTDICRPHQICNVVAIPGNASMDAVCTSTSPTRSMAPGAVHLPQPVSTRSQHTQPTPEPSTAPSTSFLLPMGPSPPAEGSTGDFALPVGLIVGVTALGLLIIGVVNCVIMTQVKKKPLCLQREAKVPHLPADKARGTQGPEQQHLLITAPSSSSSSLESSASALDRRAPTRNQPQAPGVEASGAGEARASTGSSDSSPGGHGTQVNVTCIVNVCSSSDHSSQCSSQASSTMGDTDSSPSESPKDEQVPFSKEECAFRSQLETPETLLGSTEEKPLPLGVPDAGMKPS

TNFR1-Fc fusion protein = target: T2, TNFR1-Fc fusion protein (UniProt P19438 29-197); assay: ELISA, coated TNFR1-Fc, anti-human Fab-HRP
T2 construct: range 29-197; Coated antigen in ELISA; not shown: Fc part of the fusion, not described
T2 sequence (looked up): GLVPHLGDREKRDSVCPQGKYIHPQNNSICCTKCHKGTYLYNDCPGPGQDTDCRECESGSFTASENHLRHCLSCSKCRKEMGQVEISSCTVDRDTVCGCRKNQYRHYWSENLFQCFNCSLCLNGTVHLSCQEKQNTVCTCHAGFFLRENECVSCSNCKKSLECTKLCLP

[1] = target: T3, TNFR2-Fc (Enbrel) fusion protein (UniProt P20333 23-257); assay: ELISA, coated TNFR2-Fc (Enbrel), anti-human Fab-HRP
T3 construct: extracellular domain; Commercial product (Enbrel) used as coated antigen
T3 sequence (looked up): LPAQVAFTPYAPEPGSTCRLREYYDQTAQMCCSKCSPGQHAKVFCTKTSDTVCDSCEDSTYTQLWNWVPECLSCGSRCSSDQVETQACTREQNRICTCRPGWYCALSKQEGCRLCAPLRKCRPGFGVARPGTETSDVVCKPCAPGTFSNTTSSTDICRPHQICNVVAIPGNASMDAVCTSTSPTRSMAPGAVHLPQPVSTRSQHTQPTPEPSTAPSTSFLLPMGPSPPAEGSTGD

B1: DbTNFR2xTNFR2-Ig (antibody, human IgG1, kappa)
heavy: QVQLQQSGAEVKKPGSAVKVSCKASGGTFSSYAISWVRQAPGQGLEWMGRIIPILGIANYAQKFQGRVTITADKSTSTAYMELSSLRSEDTAVYYCARDGLGDAFDIWGQGTMVTVSSGGGGSQSALTQPRSVSGSPGQSITISCTGTSSDVGGYNYVSWYQQHPGKAPKLMIYDVSNRPSGVSNRFSGSKSGNTASLTISGLQAEDEADYYCSSYTSSSTLVVFGGGTKLTVLASTKGPSVFPLAPSSKSTSGGTAALGCLVKDYFPEPVTVSWNSGALTSGVHTFPAVLQSSGLYSLSSVVTVPSSSLGTQTYICNVNHKPSNTKVDKKVEPKSCDKTHTCPPCPAPPVAGPSVFLFPPKPKDTLMISRTPEVTCVVVDVSHEDPEVKFNWYVDGVEVHNAKTKPREEQYNSTYRVVSVLTVLHQDWLNGKEYKCKVSNKGLPSSIEKTISKAKGQPREPQVYTLPPSRDELTKNQVSLTCLVKGFYPSDIAVEWESNGQPENNYKTTPPVLDSDGSFFLYSKLTVDKSRWQQGNVFSCSVMHEALHNHYTQKSLSLSPGK
light: QVQLQQSGAEVKKPGSAVKVSCKASGGTFSSYAISWVRQAPGQGLEWMGRIIPILGIANYAQKFQGRVTITADKSTSTAYMELSSLRSEDTAVYYCARDGLGDAFDIWGQGTMVTVSSGGGGSQSALTQPRSVSGSPGQSITISCTGTSSDVGGYNYVSWYQQHPGKAPKLMIYDVSNRPSGVSNRFSGSKSGNTASLTISGLQAEDEADYYCSSYTSSSTLVVFGGGTKLTVLRTVAAPSVFIFPPSDEQLKSGTASVVCLLNNFYPREAKVQWKVDNALQSGNSQESVTEQDSKDSTYSLSSTLTLSKADYEKHKVYACEVTHQGLSSPVTKSFNRGEC
notes: variable domains originate from IgG15
EC50 of cell death induction, Kym-1 cells, MTT assay after 24 hours (TNFR2 (on Kym-1 cells)): ~0.056 nM | fold increase of bioactivity against the bivalent antibody (TNFR2 (on Kym-1 cells)): ~500 fold | binding result (TNFR1-Fc fusion protein): no binding | EC50 [1]: 0.7 nM
